# Test results as given in patent US20230051701A1 (Bristol-Myers Squibb, published 2023).
# T1: full length extracellular domain of human CD73 linked to a His tag (human, UniProt P21589 27-547, glycosylated)
# T1 construct: 27-553 is 27-547 plus that tag; also called hCD73-his; CD73-his
# T1 sequence: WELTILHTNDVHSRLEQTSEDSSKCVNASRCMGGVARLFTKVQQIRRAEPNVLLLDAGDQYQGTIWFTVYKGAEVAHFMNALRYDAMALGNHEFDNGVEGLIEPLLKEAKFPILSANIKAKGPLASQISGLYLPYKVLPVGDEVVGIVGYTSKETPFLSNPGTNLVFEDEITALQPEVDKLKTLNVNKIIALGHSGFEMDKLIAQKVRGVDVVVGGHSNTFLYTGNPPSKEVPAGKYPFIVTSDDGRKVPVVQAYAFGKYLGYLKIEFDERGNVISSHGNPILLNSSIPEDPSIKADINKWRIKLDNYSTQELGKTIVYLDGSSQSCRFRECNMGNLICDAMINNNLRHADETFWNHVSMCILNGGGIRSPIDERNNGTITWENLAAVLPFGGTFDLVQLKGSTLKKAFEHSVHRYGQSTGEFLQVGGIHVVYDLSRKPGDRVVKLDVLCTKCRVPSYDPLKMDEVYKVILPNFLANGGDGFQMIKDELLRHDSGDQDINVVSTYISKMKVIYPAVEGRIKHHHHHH
# T2: mouse CD73 (mouse, UniProt Q61503 29-551, limits assumed)
# T2 sequence (looked up): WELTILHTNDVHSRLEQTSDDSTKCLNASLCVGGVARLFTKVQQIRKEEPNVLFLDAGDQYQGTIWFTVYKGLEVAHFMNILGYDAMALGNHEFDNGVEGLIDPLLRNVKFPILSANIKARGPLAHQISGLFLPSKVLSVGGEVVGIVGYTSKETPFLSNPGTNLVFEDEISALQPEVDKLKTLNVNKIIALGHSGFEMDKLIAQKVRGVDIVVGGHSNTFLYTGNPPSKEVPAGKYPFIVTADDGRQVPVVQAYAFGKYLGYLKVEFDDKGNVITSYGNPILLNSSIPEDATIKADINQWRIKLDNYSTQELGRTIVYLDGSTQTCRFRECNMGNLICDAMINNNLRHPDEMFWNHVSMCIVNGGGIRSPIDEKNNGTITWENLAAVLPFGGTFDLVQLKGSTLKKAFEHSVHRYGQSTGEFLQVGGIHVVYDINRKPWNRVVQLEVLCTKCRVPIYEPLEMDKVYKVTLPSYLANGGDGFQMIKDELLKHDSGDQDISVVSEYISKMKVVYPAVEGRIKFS
# T3: rat CD73 (rat, UniProt P21588 29-551, limits assumed)
# T3 sequence (looked up): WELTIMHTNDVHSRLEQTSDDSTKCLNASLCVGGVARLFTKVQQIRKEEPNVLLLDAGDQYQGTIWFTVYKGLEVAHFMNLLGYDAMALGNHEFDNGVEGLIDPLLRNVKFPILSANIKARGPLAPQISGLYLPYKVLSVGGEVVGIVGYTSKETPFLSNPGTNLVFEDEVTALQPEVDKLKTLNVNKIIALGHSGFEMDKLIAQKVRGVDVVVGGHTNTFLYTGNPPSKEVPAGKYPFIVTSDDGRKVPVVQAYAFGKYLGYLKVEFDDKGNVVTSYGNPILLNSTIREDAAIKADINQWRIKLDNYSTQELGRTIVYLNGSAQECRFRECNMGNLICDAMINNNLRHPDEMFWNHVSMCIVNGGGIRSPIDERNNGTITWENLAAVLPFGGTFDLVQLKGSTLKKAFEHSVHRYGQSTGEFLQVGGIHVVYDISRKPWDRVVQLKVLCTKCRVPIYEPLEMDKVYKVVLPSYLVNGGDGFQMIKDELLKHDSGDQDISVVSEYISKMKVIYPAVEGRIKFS
# B1: CD73.4-IgG2-C219S (antibody)
# heavy: QVQLVESGGGVVQPGRSLRLSCAASGFTFSNYGMHWVRQAPGKGLEWVAVILYDGSNKYYPDSVKGRFTISRDNSKNTLYLQMNSLRAEDTAVYYCARGGSSWYPDSFDIWGQGTMVTVSSASTKGPSVFPLAPCSRSTSESTAALGCLVKDYFPEPVTVSWNSGALTSGVHTFPAVLQSSGLYSLSSVVTVPSSNFGTQTYTCNVDHKPSNTKVDKTVERKSCVECPPCPAPPVAGPSVFLFPPKPKDTLMISRTPEVTCVVVDVSHEDPEVQFNWYVDGVEVHNAKTKPREEQFNSTFRVVSVLTVVHQDWLNGKEYKCKVSNKGLPAPIEKTISKTKGQPREPQVYTLPPSREEMTKNQVSLTCLVKGFYPSDIAVEWESNGQPENNYKTTPPMLDSDGSFFLYSKLTVDKSRWQQGNVFSCSVMHEALHNHYTQKSLSLSPG
# light: not shown
# notes: also called CD73.4-IgG2CS; CD73.4-IgG2.3
# B2: CD73.4-IgG2-C219S-IgG1.1f (antibody)
# heavy: QVQLVESGGGVVQPGRSLRLSCAASGFTFSNYGMHWVRQAPGKGLEWVAVILYDGSNKYYPDSVKGRFTISRDNSKNTLYLQMNSLRAEDTAVYYCARGGSSWYPDSFDIWGQGTMVTVSSASTKGPSVFPLAPCSRSTSESTAALGCLVKDYFPEPVTVSWNSGALTSGVHTFPAVLQSSGLYSLSSVVTVPSSNFGTQTYTCNVDHKPSNTKVDKTVERKSCVECPPCPAPPVAGPSVFLFPPKPKDTLMISRTPEVTCVVVDVSHEDPEVKFNWYVDGVEVHNAKTKPREEQYNSTYRVVSVLTVLHQDWLNGKEYKCKVSNKALPSSIEKTISKAKGQPREPQVYTLPPSREEMTKNQVSLTCLVKGFYPSDIAVEWESNGQPENNYKTTPPVLDSDGSFFLYSKLTVDKSRWQQGNVFSCSVMHEALHNHYTQKSLSLSPG
# light: not shown
# modifications: 94% of the N-terminal glutamine was pyro-Q; 97% of the heavy chains lacked the C-terminal lysine
# notes: also called CD73.4-IgG2CS-IgG1.1f
# Legend:
# [1] = target: T1, full length extracellular domain of …; assay: SEC-MALS, equimolar mix 5.5 uM mAb + 5.5 uM hCD73-his, peak area
# Description: The oligomeric state of CD73/antibody complexes were examined by size-exclusion chromatography coupled to an in-line multi-angle light scattering detector (SEC-MALS). Isocratic separations were performed on a Shodex PROTEIN KW-803 column connected to an Prominence Shimadzu UFLC in buffer containing 200 mM K2HPO4, 150 mM NaCl, pH 6.8, containing 0.02% Na azide (0.1 μm filtered) running at 0.5 mL/min. Samples were injected onto the column using a SIL-20AC Prominence Shimadzu autosampler, and data were obtained from three online detectors connected in series: a Prominence SPD-20AD diode array UV/vis spectrophotometer followed by a Wyatt miniDAWN™ TREOS Multi-Angle Light Scattering Detector then a Wyatt Optilab T-rEX Refractive Index Detector. Data were collected and analyzed using Astra (Wyatt) and Labsolutions (Shimadzu) software.
# CD73.4 antibodies having the heavy chain constant regions set forth in Table 26 were also tested for formation of high molecular weight complexes by SEC-MALS and DLS experiments, as described in Example 11.
# mouse CD73 = target: T2, mouse CD73; assay: SPR study of Example 3A; format not described
# rat CD73 = target: T3, rat CD73; assay: SPR study of Example 3A; format not described
binder,measurement,setting,value
B1,UV % Peak1 <12.9 min (complexes larger than 4:4 hCD73-his:mAb),[1],37%
B2,binding result,mouse CD73,no binding
same,binding result,rat CD73,no binding
